Response data for four substances are collected here from article PMC5156306.

This experiment has as its target WT CCR5 (5555), HA-tagged, on transfected HEK293T cells (UniProt P51681). The experiment is described as follows: competition assay, flow cytometry on cells. Particulars: DyLight488-LukE 595 nM, LukD DN 565 nM, read off a plot. In general terms: Flow cytometry measures light scatter and fluorescence of single cells or particles in a stream.
Where [1] appears, read: 74.5 nM unlabeled LukE variant, parent: est. 13.
The mark [2] stands for this setting: 149 nM unlabeled LukE variant, parent: est. 11.
Setting [3] is: 298 nM unlabeled LukE variant, parent: est. 10.
Where [4] appears, read: 596 nM unlabeled LukE variant, parent: est. 9.2.

For the substance “WT LukE LukE/LukS^DR1 (DR1, residues 57 to 75, replaced by the corresponding region of LukS-PV)”, the response reads like this: under setting [1], 19 MFI; under setting [2], 18 MFI; under setting [3], 15 MFI; under setting [4], 14 MFI.

In the case of “WT LukE LukE/LukS^DR2 (DR2, residues 140 to 150, replaced by the corresponding region of LukS-PV)”, the response by setting is: under setting [1], 13 MFI; under setting [2], 11 MFI; under setting [3], 9.8 MFI; under setting [4], 9 MFI.

On to “WT LukE LukE/LukS^DR3 (DR3, residues 164 to 178, replaced by the corresponding region of LukS-PV)”, for which the response came out at 15 MFI under setting [1], 12 MFI under setting [2], 11 MFI under setting [3] and 9.7 MFI under setting [4].

With “WT LukE LukE/LukS^DR4 (DR4, residues 182 to 196, replaced by the corresponding region of LukS-PV)”, the response by setting is: under setting [1], 12 MFI; under setting [2], 9.9 MFI; under setting [3], 9.3 MFI; under setting [4], 8.3 MFI.
